This series has as its target H3(1-53) peptide.

B1: protein lysine N-methyltransferase (histone H3 lysine-9 specific) from Neurospora crassa (NcDIM-5) (protein)
chain: IRSFATHAQLPISIVNREDDAFLNPNFRFIDHSIIGKNVPVADQSFRVGCSCASDEECMYSTCQCLDEMAPDSDEEADPYTRKKRFAYYSQGAKKGLLRDRVLQSQEPIYECHQGCACSKDCPNRVVERGRTVPLQIFRTKDRGWGVKCPVNIKRGQFVDRYLGEIITSEEADRRRAESTIARRKDVYLFALDKFSDPDSLDPLLAGQPLEVDGEYMSGPTRFINHSCDPNMAIFARVGDHADKHIHDLALFAIKDIPKGTELTFDYVNGLTGLESDAHDPSKISEMTKCLCGTAKCRGYLW
As to B1, the Km for peptide H3(1-53), TM0936-coupled methyltransferase assay (absorbance 263 nm), SAM saturating, 7.6 nM NcDIM-5, glycine buffer pH 9.50 amounted to 0.9 µM.

For the origin of these results see patent publication US20230220443.
